The source of these data is US20210155689A1 (SHANGHAI PHARMAEXPLORER, published 2021).

Experiment [1] deals with T1, monkey LAG-3 on cells (HEK293-cLAG-3 stable cell line) (monkey, UniProt P18627 24-525 (human entry)).
T1 construct: Full-length monkey (Chinese monkey) LAG-3 gene expressed on HEK293 cells
T1 chain: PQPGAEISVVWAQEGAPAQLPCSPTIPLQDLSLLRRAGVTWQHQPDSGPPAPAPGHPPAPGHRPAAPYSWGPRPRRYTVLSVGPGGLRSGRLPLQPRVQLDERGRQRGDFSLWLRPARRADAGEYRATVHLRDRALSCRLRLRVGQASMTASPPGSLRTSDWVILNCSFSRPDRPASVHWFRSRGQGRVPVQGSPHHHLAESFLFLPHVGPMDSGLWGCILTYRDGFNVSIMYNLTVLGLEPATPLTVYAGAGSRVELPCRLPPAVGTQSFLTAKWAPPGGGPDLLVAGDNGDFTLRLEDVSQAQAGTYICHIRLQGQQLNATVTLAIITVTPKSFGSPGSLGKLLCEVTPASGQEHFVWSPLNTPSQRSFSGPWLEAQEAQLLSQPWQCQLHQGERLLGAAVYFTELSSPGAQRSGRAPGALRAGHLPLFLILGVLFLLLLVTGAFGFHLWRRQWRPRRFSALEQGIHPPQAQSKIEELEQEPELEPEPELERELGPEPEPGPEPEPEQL
As to the kind of experiment: FACS, HEK293-cLAG-3, antibody 0.064 nM. An excerpt:
(§1) The pIRES plasmid with the monkey-derived full-length gene was transfected into the HEK293 cell line to construct a HEK293 stable cell line containing monkey LAG-3 (herein referred to as HEK293-cLAG-3 stable cell line). The HEK293-hLAG-3 stable cell line and HEK293-cLAG-3 stable cell line were expanded in a T-75 cell culture flask to a 90% confluence. The medium was aspirated, and the cells were washed with HBSS (Hanks' Balanced Salt Solution) 1-2 times, then treated with a enzyme-free cell dissociation fluid (Versene solution: Life technology) and the cells were collected. The cells were washed with HBSS buffer for 1-2 times. After counted, the cells were diluted with HBSS to 1-2×10⁶ cells per ml, added with 1% goat serum blocking solution, incubated on ice for 20-30 minutes, and then washed with HBSS for 2 times by centrifugation. The collected cells were suspended in the FACS buffer (HBSS+1% BSA) to 2×10⁶ cells/ml, added as 100 microliters per well to a 96-well FACS reaction plate, added with 100 microliters per well of the antibody sample to be tested, incubated on ice for 1-2 hours. The plate was washed twice with the FACS buffer by centrifugation, added with 100 microliters of fluorescent (Alexa 488)-labeled secondary antibodies per well, and incubated on ice for 0.5-1.0 hours. The plate was washed 2-3 times with FACS buffer by centrifugation, added with 100 μl fixative solution (4% Paraformaldehyde) per well to suspend the cells. 5-10 minutes later, it was washed 1-2 times with FACS buffer by centrifugation. The cells were suspended with 100 microliters of FACS buffer, FACS (FACSCalibur, BD) was used for detection and the results were analyzed.

For experiment [2], the target named is T2, human LAG-3 on cells (HEK293-hLAG-3 stable cell line) (human, UniProt P18627 23-525).
T2 sequence: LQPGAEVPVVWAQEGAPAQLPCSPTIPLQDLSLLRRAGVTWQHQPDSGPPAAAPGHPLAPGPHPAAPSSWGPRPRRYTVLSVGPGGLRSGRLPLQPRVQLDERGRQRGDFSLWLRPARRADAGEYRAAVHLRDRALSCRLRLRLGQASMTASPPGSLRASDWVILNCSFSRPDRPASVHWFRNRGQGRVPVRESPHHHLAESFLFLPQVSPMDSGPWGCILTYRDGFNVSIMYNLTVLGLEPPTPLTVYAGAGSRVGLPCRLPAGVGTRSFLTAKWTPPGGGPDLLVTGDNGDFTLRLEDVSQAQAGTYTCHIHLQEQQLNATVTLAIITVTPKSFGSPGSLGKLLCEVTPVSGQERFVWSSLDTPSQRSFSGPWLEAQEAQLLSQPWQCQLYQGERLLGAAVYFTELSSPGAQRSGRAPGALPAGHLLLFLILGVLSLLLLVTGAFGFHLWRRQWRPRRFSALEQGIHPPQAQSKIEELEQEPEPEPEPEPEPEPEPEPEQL
The experiment in a line: FACS, HEK293-hLAG-3, antibody 8.000 nM.
Description: as §1
Background: A flow cytometer gives signals particle by particle.

B1: 105F1E10 mouse-human chimeric antibody (antibody, V domains shown)
VH: EVQLQQSGPELVKPGASVKMSCRASGYTFTDFKMHWMKQSHGKSLEWIGYIAPNNGGTAYNQKFRGKATLTVNESSNTAYMELRSLTSEDSAVYYCVDWDDVDYWGQGTTLTVSS
VL: DIKMTQSPSSMYASLGERVTITCKASQDINSYLSWFQQKSGKSPKTLIYRANRLVDGVPSRFSGSGSGQDYSLTISSLEYEDMGIYYCLQYVEFPLTFGAGTKLELK
notes: also called mAb009-105F1E10
In the case of B1, the values for the Mean fluorescence intensity in experiment [1] and in experiment [2] were 3.54 and 99.4, respectively.

B2: 405B8H3 mouse-human chimeric antibody (antibody, V domains shown)
VH: QVQLQQSGAELVRPGASVTLSCKASGYTFTDYEMHWVKQTPVHGLEWIGATDPETGNSAYNQKFKGKAIMTADKSSSTAYMELRSLTSEDSAVYYCISTGWNDWGQGTSLTVSS
VL: DIKMTQSPSSMYASLGERVTITCKASQDINSYLSWFQQKPGKSPKTLIYRADRLLDGVPSRFSGSGSGQDYSLTISSLEYGDMGIYYCLQYDEFPYTFGGGTKLEIK
notes: also called mAb103-405B8H3
On to B2, for which the figures for the Mean fluorescence intensity in experiment [1] and in experiment [2] were 4.8 and 137, respectively.

B3: 409D4E10 mouse-human chimeric antibody (antibody, V domains shown)
VH: QVQLQQSGAELVRPGASVTLSCKASGNTFTDYEMHWVKQTPVHGLEWIGATDPETDNTAYNQKFKGKAILTTDKSSSTAYMELRSLTSEDSAVYYCITSGWNDWGQGTSLTVSS
VL: DIKMTQSPSSMYASLGERVTITCKASQDINSYLSWFQQKPGKSPKTLIYRANRLLDGVPSRFSGSGSGQDYSLTISSLEYEDMGIYYCLQYNEFPYTFGGGTKLEIK
notes: also called mAb112-409D4E10
Turning to B3, the Mean fluorescence intensity in experiment [1] turned out to be 4.42; in experiment [2] it was 129.

B4: 409B11E12 mouse-human chimeric antibody (antibody, V domains shown)
VH: QVQLQQSGAELVRPGASVTLSCKASGYTFTDYEMHWVKQTTVHGLEWIGATDPETSYSAYNQKFKGKAILTADKSSSTAYMELRSLTSEDSAVYYCIATGWNDWGQGTSLTVSS
VL: DLKMTQSPSSMYASLGERVTITCKASQDINSYLSWFQQKPGKSPKTLIYRANRLLDGVPSRFSGSGSGQDYSLTISSLEYEDMGIYYCLQYDEFPYTFGGGTKLEIK
notes: also called mAb104-409B11E12
As to B4, the Mean fluorescence intensity in experiment [1] was determined as 4.95; in experiment [2] it was 136.
